Test results taken from patent publication US20260027208A1 (published 2026).
Read-outs that look alike come from different tables or passages of the source.

T1: KRAS G12D peptide on HLA-A*11:01 (human)
T1 peptide: VVVGADGVGK


Experiments:
[1] = molecular target: T2, KRAS G12D mutant peptide presented by HLA-A*11:01 on cells (human); experiment: cell-based or functional assay
[2] = molecular target: T2, KRAS G12D mutant peptide presented by …; experiment: cell-based or functional assay; remark: listed apart in the source
[3] = molecular target: T1, KRAS G12D peptide on HLA-A*11:01; experiment: CD137 by flow cytometry; transduced primary CD4+ and CD8+ T cells, TRAC/TRBC double knockout; G12D peptide titrated (FIG. 3C); full-length, on cells
Protocol: (§1) Primary CD4+ and CD8+ T cells were transduced with a KRAS-G12D-specific T cell receptor (TCR69, TCR79, TCR80, TCR81, or TCR91), and were either edited to knockout TRAC and TRBC or left with unmodified TRAC and TRBC genes, and expanded for several days. Engineered T cells were incubated with G12D peptide at decreasing concentrations and T cell responses were assessed by measuring CD137 expression.
(§2) In additional experiments, the effect of TRAC and TRBC knockout was evaluated for primary CD4+ and CD8+ T cells transduced with further KRAS-G12D-specific TCRs. The double knockout improved TCR avidity for multiple TCRs as shown in FIG. 3C (corresponding EC50 values in TABLE 2 and Cmax values in TABLE 3), FIG. 3D (corresponding EC50 values in TABLE 4), and FIG. 3E (corresponding EC50 values in TABLE 5).

[4] = molecular target: T1, KRAS G12D peptide on HLA-A*11:01; experiment: CD137 by flow cytometry; transduced primary CD4+ and CD8+ T cells, TRAC/TRBC wild type; G12D peptide titrated (FIG. 3C); full-length, on cells
Protocol: as §1, §2

[5] = molecular target: T1, KRAS G12D peptide on HLA-A*11:01; experiment: CD137 by flow cytometry; transduced primary CD4+ and CD8+ T cells, TRAC/TRBC wild type; G12D peptide titrated (FIG. 3D); full-length, on cells
Protocol: as §1, §2

[6] = molecular target: T1, KRAS G12D peptide on HLA-A*11:01; experiment: CD137 by flow cytometry; transduced primary CD4+ and CD8+ T cells without knockout of TRAC and TRBC; G12D peptide titrated (FIG. 3C); full-length, on cells
Protocol: as §1, §2

[7] = molecular target: T1, KRAS G12D peptide on HLA-A*11:01; experiment: CD137 by flow cytometry; transduced primary CD4+ and CD8+ T cells, TRAC/TRBC double knockout; G12D peptide titrated (FIG. 3D); full-length, on cells
Protocol: as §1, §2

[8] = molecular target: T1, KRAS G12D peptide on HLA-A*11:01; experiment: CD137 by flow cytometry; transduced primary CD4+ and CD8+ T cells, TRAC/TRBC double knockout; G12D peptide titrated (FIG. 3E); full-length, on cells
Protocol: as §1, §2

[9] = molecular target: T1, KRAS G12D peptide on HLA-A*11:01; experiment: CD137 by flow cytometry; transduced primary CD4+ and CD8+ T cells, TRAC/TRBC wild type; G12D peptide titrated (FIG. 3E); full-length, on cells
Protocol: as §1, §2

[10] = molecular target: T1, KRAS G12D peptide on HLA-A*11:01; experiment: activation reporter or marker

| Binder | Cmax (%) of CD137 T cell activation by G12D peptide, without knockout of TRAC and TRBC [1] [%] | T cell activation EC50 (CD137 vs G12D peptide dose), TRAC/TRBC double knockout T cells [1] [µM] | T cell activation EC50 (CD137 vs G12D peptide dose), WT TRAC/TRBC T cells [1] [µM] | T cell activation EC50 (CD137 vs G12D peptide dose), TRAC/TRBC double knockout T cells [2] [µM] | T cell activation EC50 (CD137 vs G12D peptide dose), WT TRAC/TRBC T cells [2] [µM] | EC50 of peptide [3] [µM] | EC50 of peptide [4] [µM] | EC50 of peptide [5] [µM] | Cmax [6] [%] | EC50 of peptide [7] [µM] | EC50 of peptide [8] [µM] | EC50 of peptide [9] [µM] | binding result [10] |
| --- | --- | --- | --- | --- | --- | --- | --- | --- | --- | --- | --- | --- | --- |
| TCR2 (TCR) TCR alpha: AQTVTQSQPEMSVQEAETVTLSCTYDTSENNYYLFWYKQPPSRQMILVIRQEAYKQQNATENRFSVNFQKAAKSFSLKISDSQLGDTAMYFCAFMYPSQGGSEKLVFGKGMKLTVNPNIQNPDPAVYQLRDSKSSDKSVCLFTDFDSQTNVSQSKDSDVYITDKCVLDMRSMDFKSNSAVAWSNKSDFACANAFNNSIIPEDTFFPSPESSCDVKLVEKSFETDTNLNFQNLSVIGFRILLLKVAGFNLLMTLRLWSS TCR beta: MGPGLLCWVLLCLLGAGSVETGVTQSPTHLIKTRGQQVTLRCSSQSGHNTVSWYQQALGQGPQFIFQYYREEENGRGNFPPRFSGLQFPNYSSELNVNALELDDSALYLCASSSPGFRSYGYTFGSGTRLTVVEDLKNVFPPEVAVFEPSEAEISHTQKATLVCLATGFYPDHVELSWWVNGKEVHSGVCTDPQPLKEQPALNDSRYCLSSRLRVSATFWQNPRNHFRCQVQFYGLSENDEWTQDRAKPVTQIVSAEAWGRADCGFTSESYQQGVLSATILYEILLGKATLYAVLVSALVLMAMVKRKDSRG | 42.7 | 0.0101 | 0.0316 | 0.0073 | 0.0222 | – | – | – | – | – | – | – | – |
| TCR6 (TCR) TCR alpha: GQQLNQSPQSMFIQEGEDVSMNCTSSSIFNTWLWYKQDPGEGPVLLIALYKAGELTSNGRLTAQFGITRKDSFLNISASIPSDVGIYFCAGRREGAQKLVFGQGTRLTINPNIQNPDPAVYQLRDSKSSDKSVCLFTDFDSQTNVSQSKDSDVYITDKCVLDMRSMDFKSNSAVAWSNKSDFACANAFNNSIIPEDTFFPSPESSCDVKLVEKSFETDTNLNFQNLSVIGFRILLLKVAGFNLLMTLRLWSS TCR beta: GAGVSQSPRYKVAKRGQDVALRCDPISGHVSLFWYQQALGQGPEFLTYFQNEAQLDKSGLPSDRFFAERPEGSVSTLKIQRTQQEDSAVYLCASSSTLMGVNIQYFGAGTRLSVLEDLKNVFPPEVAVFEPSEAEISHTQKATLVCLATGFYPDHVELSWWVNGKEVHSGVCTDPQPLKEQPALNDSRYCLSSRLRVSATFWQNPRNHFRCQVQFYGLSENDEWTQDRAKPVTQIVSAEAWGRADCGFTSESYQQGVLSATILYEILLGKATLYAVLVSALVLMAMVKRKDSRG | – | 0.0143 | 0.024 | 0.0064 | 0.0122 | – | – | – | – | – | – | – | – |
| TCR5 (TCR, V domains shown) Valpha: GEDVEQSLFLSVREGDSSVINCTYTDSSSTYLYWYKQEPGAGLQLLTYIFSNMDMKQDQRLTVLLNKKDKHLSLRIADTQTGDSAIYFCAERDAGNNRKLIWGLGTSLAVNP Vbeta: GAGVSQSPRYKVAKRGQDVALRCDPISGHVSLFWYQQALGQGPEFLTYFQNEAQLDKSGLPSDRFFAERPEGSVSTLKIQRTQQEDSAVYLCASSLEGGDTQYFGPGTRLTVL | – | – | – | – | – | 0.0076 | 0.0363 | 0.0378 | 23.9 | 0.0094 | 0.0076 | 0.0363 | – |
| TCR4 (TCR, V domains shown) Valpha: QKEVEQDPGPLSVPEGAIVSLNCTYSNSAFQYFMWYRQYSRKGPELLMYTYSSGNKEDGRFTAQVDKSSKYISLFIRDSQPSDSATYLCAMGALNSGAGSYQLTFGKGTKLSVIP Vbeta: KAGVTQTPRYLIKTRGQQVTLSCSPISGHRSVSWYQQTPGQGLQFLFEYFSETQRNKGNFPGRFSGRQFSNSRSEMNVSTLELGDSALYLCASSLSSGTGTEAFFGQGTRLTVE | – | – | – | – | – | 0.0118 | 0.0498 | 0.0311 | 16 | 0.0044 | 0.0118 | 0.0498 | – |
| TCR1 (TCR) TCR alpha: GDSVTQMEGPVTLSEEAFLTINCTYTATGYPSLFWYVQYPGEGLQLLLKATKADDKGSNKGFEATYRKETTSFHLEKGSVQVSDSAVYFCALSDRVGGARLMFGDGTQLVVKPNIQNPDPAVYQLRDSKSSDKSVCLFTDFDSQTNVSQSKDSDVYITDKCVLDMRSMDFKSNSAVAWSNKSDFACANAFNNSIIPEDTFFPSPESSCDVKLVEKSFETDTNLNFQNLSVIGFRILLLKVAGFNLLMTLRLWSS TCR beta: DIYQTPRYLVIGTGKKITLECSQTMGHDKMYWYQQDPGMELHLIHYSYGVNSTEKGDLSSESTVSRIRTEHFPLTLESARPSHTSQYLCASSEGLYNEQFFGPGTRLTVLEDLKNVFPPEVAVFEPSEAEISHTQKATLVCLATGFYPDHVELSWWVNGKEVHSGVCTDPQPLKEQPALNDSRYCLSSRLRVSATFWQNPRNHFRCQVQFYGLSENDEWTQDRAKPVTQIVSAEAWGRADCGFTSESYQQGVLSATILYEILLGKATLYAVLVSALVLMAMVKRKDSRG | – | 0.0641 | 0.119 | 0.0122 | 0.0511 | – | – | – | – | – | – | – | – |
| TCR6 (TCR, V domains shown) Valpha: GQQLNQSPQSMFIQEGEDVSMNCTSSSIFNTWLWYKQDPGEGPVLLIALYKAGELTSNGRLTAQFGITRKDSFLNISASIPSDVGIYFCAGRREGAQKLVFGQGTRLTINP Vbeta: GAGVSQSPRYKVAKRGQDVALRCDPISGHVSLFWYQQALGQGPEFLTYFQNEAQLDKSGLPSDRFFAERPEGSVSTLKIQRTQQEDSAVYLCASSSTLMGVNIQYFGAGTRLSVL | – | – | – | – | – | – | – | 0.0122 | – | 0.0064 | 0.0143 | 0.024 | – |
| TCR69 (TCR, V domains shown) Valpha: TQLLEQSPQFLSIQEGENLTVYCNSSSVFSSLQWYRQEPGEGPVLLVTVVTGGEVKKLKRLTFQFGDARKDSSLHITAAQPGDTGLYLCAGKTTDSWGKLQFGAGTQVVVTP Vbeta: EPEVTQTPSHQVTQMGQEVILRCVPISNHLYFYWYRQILGQKVEFLVSFYNNEISEKSEIFDDQFSVERPDGSNFTLKIRSTKLEDSAMYFCASSEWAGTEAFFGQGTRLTVV | – | – | – | – | – | – | – | – | – | – | – | – | recognises |

Now from value to binder:

| Cmax (%) of CD137 T cell activation by G12D peptide, without knockout of TRAC and TRBC [1] [%] | T cell activation EC50 (CD137 vs G12D peptide dose), TRAC/TRBC double knockout T cells [1] [µM] | T cell activation EC50 (CD137 vs G12D peptide dose), WT TRAC/TRBC T cells [1] [µM] | T cell activation EC50 (CD137 vs G12D peptide dose), TRAC/TRBC double knockout T cells [2] [µM] | T cell activation EC50 (CD137 vs G12D peptide dose), WT TRAC/TRBC T cells [2] [µM] | EC50 of peptide [3] [µM] | EC50 of peptide [4] [µM] | EC50 of peptide [5] [µM] | Cmax [6] [%] | EC50 of peptide [7] [µM] | EC50 of peptide [8] [µM] | EC50 of peptide [9] [µM] | binding result [10] | Binder |
| --- | --- | --- | --- | --- | --- | --- | --- | --- | --- | --- | --- | --- | --- |
| – | – | – | – | – | 0.0101 | 0.0316 | 0.0222 | 42.7 | 0.0073 | 0.0101 | 0.0316 | – | TCR2 (TCR, V domains shown) Valpha: AQTVTQSQPEMSVQEAETVTLSCTYDTSENNYYLFWYKQPPSRQMILVIRQEAYKQQNATENRFSVNFQKAAKSFSLKISDSQLGDTAMYFCAFMYPSQGGSEKLVFGKGMKLTVNP Vbeta: ETGVTQSPTHLIKTRGQQVTLRCSSQSGHNTVSWYQQALGQGPQFIFQYYREEENGRGNFPPRFSGLQFPNYSSELNVNALELDDSALYLCASSSPGFRSYGYTFGSGTRLTVV |
| – | – | – | – | – | – | – | 0.0511 | – | 0.0122 | 0.0641 | 0.119 | – | TCR1 (TCR, V domains shown) Valpha: GDSVTQMEGPVTLSEEAFLTINCTYTATGYPSLFWYVQYPGEGLQLLLKATKADDKGSNKGFEATYRKETTSFHLEKGSVQVSDSAVYFCALSDRVGGARLMFGDGTQLVVKP Vbeta: EADIYQTPRYLVIGTGKKITLECSQTMGHDKMYWYQQDPGMELHLIHYSYGVNSTEKGDLSSESTVSRIRTEHFPLTLESARPSHTSQYLCASSEGLYNEQFFGPGTRLTVL |
| – | – | – | – | – | – | – | – | – | – | – | – | recognises | TCR80 (TCR, V domains shown) Valpha: AQTVTQSQPEMSVQEAETVTLSCTYDTSESDYYLFWYKQPPSRQMILVIRQEAYKQQNATENRFSVNFQKAAKSFSLKISDSQLGDAAMYFCASTLSSGDKLTFGTGTRLAVRP Vbeta: EPEVTQTPSHQVTQMGQEVILRCVPISNHLYFYWYRQILGQKVEFLVSFYNNEISEKSEIFDDQFSVERPDGSNFTLKIRSTKLEDSAMYFCASSGVDRAYGYTFGSGTRLTVV |
| – | – | – | – | – | 0.0365 | 0.131 | 0.179 | 14.4 | 0.0144 | 0.0365 | 0.131 | – | TCR91 (TCR, V domains shown) Valpha: AQKVTQAQTEISVVEKEDVTLDCVYETRDTTYYLFWYKQPPSGELVFLIRRNSFDEQNEISGRYSWNFQKSTSSFNFTITASQVVDSAVYFCALNEGGGSTLGRLYFGRGTQLTVWP Vbeta: DAMVIQNPRYQVTQFGKPVTLSCSQTLNHNVMYWYQQKSSQAPKLLFHYYDKDFNNEADTPDNFQSRRPNTSFCFLDIRSPGLGDAAMYLCATSTGRVYQPQHFGDGTRLSIL |
